{"source": "paper PMC12948223", "about": "“HSP70 Interactome‐Mediated Proteolysis Targeting Chimera (HSP70‐PROTAC) for Ferroptosis‐Driven Cancer Treatment” (Advanced Science, 2025)", "binders": {"B1": {"name": "glutathione peroxidase 4 (GPX4), recombinant (enzyme)", "chain": "MCASRDDWRCARSMHEFSAKDIDGHMVNLDKYRGFVCIVTNVASQUGKTEVNYTQLVDLHARYAECGLRILAFPCNQFGKQEPGSNEEIKEFAAGYNVKFDMFSKICVNGDDAHPLWKWMKIQPKGKGILGNAIKWNFTKFLIDKNGCVVKRYGPMEEPLVIEKDLPHYF", "modifications": "Limits are by convention: cytosolic isoform, starting at precursor Met28 (paper numbering + 27, so Sec46 = U73; matches the start of 6HKQ). The commercial protein's limits and tag are not stated. …"}}, "key": {"[1]": {"target": "T1, heat shock cognate protein 70 (Hsc70), recombinant (human, UniProt P11142 1-646)", "T1 construct": "Hsc70 (HSPA8), human, bought recombinant protein; see the vendor's data sheet for HY-P73915A; also called HSPA8; heat shock cognate 70 protein; source: bought: MedChemExpress, #HY-P73915A (recombinant protein)", "T1 sequence (P11142 whole entry)": "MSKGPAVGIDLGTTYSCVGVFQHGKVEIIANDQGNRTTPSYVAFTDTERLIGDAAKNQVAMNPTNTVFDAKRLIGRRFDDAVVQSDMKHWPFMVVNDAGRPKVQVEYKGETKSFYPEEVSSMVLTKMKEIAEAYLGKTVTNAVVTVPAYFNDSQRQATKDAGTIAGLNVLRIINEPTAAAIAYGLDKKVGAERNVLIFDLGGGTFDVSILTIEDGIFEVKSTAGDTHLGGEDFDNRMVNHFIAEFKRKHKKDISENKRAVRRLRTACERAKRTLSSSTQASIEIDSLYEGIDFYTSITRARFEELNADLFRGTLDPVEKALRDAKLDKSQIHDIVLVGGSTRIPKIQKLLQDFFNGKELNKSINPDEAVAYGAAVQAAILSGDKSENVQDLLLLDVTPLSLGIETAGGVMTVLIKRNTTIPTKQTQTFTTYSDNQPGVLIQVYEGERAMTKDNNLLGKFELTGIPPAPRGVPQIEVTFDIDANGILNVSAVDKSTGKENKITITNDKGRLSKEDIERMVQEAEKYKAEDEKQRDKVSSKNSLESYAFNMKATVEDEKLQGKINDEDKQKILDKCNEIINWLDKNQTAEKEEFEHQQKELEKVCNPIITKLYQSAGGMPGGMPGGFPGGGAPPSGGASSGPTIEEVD", "assay": "SPR; Biacore 8K; human Hsc70 immobilised on a CM5 chip; GPX4 without compound (binary complex); PBS pH 7.4 running buffer, 30 uL/min, 25 °C, 120 s association and 120 s dissociation", "details": "both partners purified"}, "[2]": {"target": "T1, heat shock cognate protein 70 (Hsc70), …", "assay": "SPR; Biacore 8K; Hsc70 immobilised on a CM5 chip; GDAz-3 at 1 uM preincubated with GPX4 (ternary-complex measurement); PBS pH 7.4, 30 uL/min, 25 °C, 120 s association and 120 s dissociation", "details": "both partners purified"}}, "data": [{"binder": "B1", "values": [{"measurement": "Kd", "setting": "[1]", "result": 100, "unit": "nM"}, {"measurement": "KD with GDAz-3", "setting": "[2]", "result": 23.9, "unit": "nM"}]}]}
